Paper PMC10465003, “The AAA-ATPase Yta4/ATAD1 interacts with the mitochondrial divisome to inhibit mitochondrial fission” (PLOS Biology, 2023)

B2: Dnm1 (enzyme, Schizosaccharomyces pombe, UniProt Q09748 1-781, looked up)
chain: MEQLIPLVNQLQDLVYNTIGSDFLDLPSIVVVGSQSCGKSSVLENIVGKDFLPRGTGIVTRRPLILQLINLKRKTKNNHDEESTSDNNSEETSAAGETGSLEGIEEDSDEIEDYAEFLHIPDTKFTDMNKVRAEIENETLRVAGANKGINKLPINLKIYSTRVLNLTLIDLPGLTKIPVGDQPTDIEAQTRSLIMEYISRPNSIILAVSPANFDIVNSEGLKLARSVDPKGKRTIGVLTKLDLMDQGTNAMDILSGRVYPLKLGFVATVNRSQSDIVSHKSMRDALQSERSFFEHHPAYRTIKDRCGTPYLAKTLSNLLVSHIRERLPDIKARLSTLISQTQQQLNNYGDFKLSDQSQRGIILLQAMNRFANTFIASIDGNSSNIPTKELSGGARLYSIFNNVFTTALNSIDPLQNLSTVDIRTAILNSTGSRATLFLSEMAFDILVKPQLNLLAAPCHQCVELVYEELMKICHYSGDSDISHFPKLQTALVETVSDLLRENLTPTYSFVESLIAIQSAYINTNHPDFLGVQGAMAVVLSRKEQNRLMLSQENDEPISSALDTVKPDGIELYSSDPDTSVKSITNKATNEITTLKSDDSAKMQPLDVLASKRYNNAFSTETAERKTFLSYVFGANNATRKAMSIDKSSSYPLNDSLSGGDTNHKNNHPLKMTDLSNEVETMALEDMSEREEVEVDLIKELITSYFNLTRKIIIDQVPKVIMHLLVNASKDAIQNRLVSKLYREDFFDTLLIEDENVKSEREKCERLLSVYNQANKIISTVF
notes: Dnm1, fission yeast dynamin-related GTPase; also called Dnm1(WT); recombinant Dnm1; source: E. coli Rosseta, purified (Ni-NTA, sumo protease, size-exclusion chromatography); not shown: His-sumo, N-terminal, cleaved

What was measured:
[1] = molecular target: GST-Mdv1(319–651) (Schizosaccharomyces pombe) (UniProt Q9P7I3); assay: pull-down; competitive binding: GST-Mdv1(a.a. 319–651) on glutathione resins incubated with Dnm1 or Dnm1(G380D), with or without His-Yta4(a.a 33–355); band intensities quantified
Dnm1 [2] = molecular target: B2
[3] = molecular target: Hcp1-Yta4(a.a. 35–355) (not stated | Schizosaccharomyces pombe); assay: SEC + cross-linking; Superdex 200 Increase 10/300 GL in hypersaline buffer (500 mM NaCl, 500 mM KCl, 1 mM ATP, pH 7.5); EGS 4 mM, 300 ng/μL protein, 30 min at room temperature, SDS-PAGE with silver staining
[4] = molecular target: Hcp1-Msp1(a.a. 36–362) (not stated | budding yeast (Saccharomyces cerevisiae)) (UniProt P28737); assay: as above
GST-Mdv1(a.a. 1–249) [5] = molecular target: T1, GST-Mdv1(a.a. 1–249) (Schizosaccharomyces pombe (strain 972 / …, UniProt Q9P7I3)); assay: GST pull-down
T1 chain: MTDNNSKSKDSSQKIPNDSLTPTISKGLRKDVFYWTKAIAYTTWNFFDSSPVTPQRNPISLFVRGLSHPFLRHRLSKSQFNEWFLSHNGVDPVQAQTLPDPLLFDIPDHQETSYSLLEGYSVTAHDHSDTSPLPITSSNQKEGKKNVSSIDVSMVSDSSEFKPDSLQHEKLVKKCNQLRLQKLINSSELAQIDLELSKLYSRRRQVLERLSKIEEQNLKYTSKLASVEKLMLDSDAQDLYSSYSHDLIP

GST-Mdv1(a.a. 1–249) [6] = molecular target: T2, GST-Mdv1(a.a. 1–249) (Schizosaccharomyces pombe, UniProt Q9P7I3 1-249); assay: pull-down; competitive binding: GST-Mdv1(a.a. 1–249) on glutathione resins incubated with His-Fis1(a.a. 1–128), with or without His-Yta4(a.a 33–355) (Mdv1 to Yta4 1:1, 1:5, 1:10); settings: both partners purified
T2 construct: Mdv1, S. pombe, residues 1-249, the N-terminus; also called GST-Mdv1(NT); not shown: GST, N-terminal, kept
T2 sequence (looked up): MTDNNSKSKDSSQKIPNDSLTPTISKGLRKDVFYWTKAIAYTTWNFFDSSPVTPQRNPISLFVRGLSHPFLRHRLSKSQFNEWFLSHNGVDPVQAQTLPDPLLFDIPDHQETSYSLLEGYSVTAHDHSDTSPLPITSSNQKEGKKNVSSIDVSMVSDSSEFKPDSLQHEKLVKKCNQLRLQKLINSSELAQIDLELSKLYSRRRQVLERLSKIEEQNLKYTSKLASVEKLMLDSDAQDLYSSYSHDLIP

[7] = substrate: Nc1nc2c(ncn2[C@@H]2O[C@H](COP(=O)(O)OP(=O)(O)OP(=O)(O)O)[C@@H](O)[C@H]2O)c(=O)[nH]1; assay: malachite green phosphate release, Michaelis-Menten fit; type: biochemical, Schizosaccharomyces pombe; settings: pH 7.5, 37°C
[8] = molecular target: the molecule itself; assay: co-sedimentation; velocity sedimentation: 2 μM Dnm1 with 0, 5, 50 or 100 μM GMP-PCP, with or without 40 μM His-Yta4; 20 min at 37°C, 10,000 g 15 min at 4°C; supernatant and pellet on SDS-PAGE
Dnm1 [9] = molecular target: B2; assay: pull-down; competitive binding: GST-Mdv1(a.a. 319–651) on glutathione resins incubated with Dnm1 or Dnm1(G380D), with or without His-Yta4(a.a 33–355); band intensities quantified; settings: both partners purified
Dnm1(G380D) = molecular target: T3, Dnm1(G380D) (Schizosaccharomyces pombe, UniProt Q09748 1-781, G380D); assay: as above; settings: both partners purified
T3 construct: Dnm1, fission yeast dynamin-related GTPase, with G380D (corresponds to G385D of S. cerevisiae Dnm1); Removal of His-sumo is stated for His-sumo-Dnm1 only; also called assembly-defective mutant of Dnm1; source: E. coli Rosseta, expressed as His-sumo-Dnm1(G380D), purified (Ni-NTA)
T3 sequence (looked up): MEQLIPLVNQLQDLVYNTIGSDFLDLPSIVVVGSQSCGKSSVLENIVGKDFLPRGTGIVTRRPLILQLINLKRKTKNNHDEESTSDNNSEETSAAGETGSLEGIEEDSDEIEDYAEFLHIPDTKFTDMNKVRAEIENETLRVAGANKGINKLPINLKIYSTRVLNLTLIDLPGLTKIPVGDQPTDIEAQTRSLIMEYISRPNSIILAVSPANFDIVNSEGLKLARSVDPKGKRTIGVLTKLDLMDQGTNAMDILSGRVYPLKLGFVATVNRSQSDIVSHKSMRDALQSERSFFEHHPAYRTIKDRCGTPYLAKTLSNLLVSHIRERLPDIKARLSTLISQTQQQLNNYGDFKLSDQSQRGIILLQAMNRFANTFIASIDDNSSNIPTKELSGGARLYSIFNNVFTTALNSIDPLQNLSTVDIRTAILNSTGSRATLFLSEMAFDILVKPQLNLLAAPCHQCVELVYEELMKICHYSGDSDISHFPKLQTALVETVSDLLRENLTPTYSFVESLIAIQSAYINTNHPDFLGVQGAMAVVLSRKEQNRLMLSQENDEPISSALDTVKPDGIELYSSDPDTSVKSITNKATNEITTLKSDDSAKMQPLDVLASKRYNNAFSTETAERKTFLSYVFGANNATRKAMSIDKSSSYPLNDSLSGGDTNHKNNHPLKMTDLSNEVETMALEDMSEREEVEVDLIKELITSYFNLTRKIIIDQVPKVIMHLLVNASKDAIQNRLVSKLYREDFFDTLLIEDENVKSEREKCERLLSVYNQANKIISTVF

Molecule: His-Yta4(a.a. 33–355) (domain or fragment)
- Dnm1 left on GST-Mdv1(WD) with His-Yta4(∆TM), percent of the level without it [1]: 40%
- Km for GTP of the GTPase activity of 0.5 μM Dnm1 (colorimetric assay, 37°C) with 5 μM and 10 μM His-Yta4(∆TM), fold increase over Dnm1 alone; Vmax not significantly affected (Dnm1 [2]): 6 fold

Molecule: Hcp1-Yta4(a.a. 35–355)
- stoichiometry N [3]: 6

Molecule: Hcp1-Msp1(a.a. 36–362) (from UniProt P28737 36-362)
- stoichiometry N [4]: 6

B1: His-Fis1(1–128) (domain or fragment, Schizosaccharomyces pombe, UniProt Q9USZ8 1-128, looked up)
chain: MTEKHTLRLADPSAIDSIISVDEFLQIKEQYDAEQPLITLQTKFNLAWALVRSDSTQHVQQGLSLFCSIYKDSPERRLECLYYIALSHYKLKQYEESRRYLNMLLSKDPNSPEALKLKNRLYDAVTKE
notes: also called His-Fis1(∆TM); Fis1(∆TM); source: E. coli BL21, purified (Ni-NTA, size-exclusion chromatography); not shown: His tag, N-terminal, kept
- binding result (GST-Mdv1(a.a. 1–249) [5]): binds
- binding result (GST-Mdv1(a.a. 1–249) [6]): binds

Molecule: B2
- Km ([7]; 0.5 μM Dnm1 alone, Mg2+): 193.80 µM
- binding result [8]: binds

B3: Dnm1 (Schizosaccharomyces pombe 972h-; G380D) (protein)
chain: MEQLIPLVNQLQDLVYNTIGSDFLDLPSIVVVGSQSCGKSSVLENIVGKDFLPRGTGIVTRRPLILQLINLKRKTKNNHDEESTSDNNSEETSAAGETGSLEGIEEDSDEIEDYAEFLHIPDTKFTDMNKVRAEIENETLRVAGANKGINKLPINLKIYSTRVLNLTLIDLPGLTKIPVGDQPTDIEAQTRSLIMEYISRPNSIILAVSPANFDIVNSEGLKLARSVDPKGKRTIGVLTKLDLMDQGTNAMDILSGRVYPLKLGFVATVNRSQSDIVSHKSMRDALQSERSFFEHHPAYRTIKDRCGTPYLAKTLSNLLVSHIRERLPDIKARLSTLISQTQQQLNNYGDFKLSDQSQRGIILLQAMNRFANTFIASIDDNSSNIPTKELSGGARLYSIFNNVFTTALNSIDPLQNLSTVDIRTAILNSTGSRATLFLSEMAFDILVKPQLNLLAAPCHQCVELVYEELMKICHYSGDSDISHFPKLQTALVETVSDLLRENLTPTYSFVESLIAIQSAYINTNHPDFLGVQGAMAVVLSRKEQNRLMLSQENDEPISSALDTVKPDGIELYSSDPDTSVKSITNKATNEITTLKSDDSAKMQPLDVLASKRYNNAFSTETAERKTFLSYVFGANNATRKAMSIDKSSSYPLNDSLSGGDTNHKNNHPLKMTDLSNEVETMALEDMSEREEVEVDLIKELITSYFNLTRKIIIDQVPKVIMHLLVNASKDAIQNRLVSKLYREDFFDTLLIEDENVKSEREKCERLLSVYNQANKIISTVF
notes: Dnm1 expressed as His-sumo-Dnm1 in E. coli Rosetta; His-sumo tag removed by sumo protease; Ni-NTA and SEC; forms heterogeneous oligomers
- Km ([7]; assembly-defective mutant, 0.5 μM, without Yta4, Mg2+): 85.00 µM

B4: GST-Mdv1(319–651) (domain or fragment, Schizosaccharomyces pombe, UniProt Q9P7I3 319-651, looked up)
chain: YIVGNLVKQFQAHSEYITSLDFSHPFGTLATASTDKTVKVWDMAGVVYLGSLKGHSDYVSCLAIQDSFIATGSMDTTVRLWNLDNDVLHKDNPVEESLNSPPDQPVDNATNVLTSHTAPVTALALSSDDVLITGADDKTVRQWDIVTGRCIQTLDFVWAETHDTSTSQILVSDTYKQEPFIRALDCLDAAVASGTVDGLIRIWDLRIGLPVRSFIGHTAPISSLQFDSNHLYSGSYDNSVRIWDLRSGSPINIIPMEKKVNSLRLYQGRLAVASDEPNVRIFDTVSNRNWICSIPSHSDSIAAEPNSVPTSVQYKDRFLVDGKSDGSVSVFSA
notes: also called GST-Mdv1(WD); Mdv1(WD); source: E. coli BL21, purified (Glutathione Sepharose 4B resins); not shown: GST, N-terminal, kept
- binding result (Dnm1 [9]): binds
- binding result (Dnm1(G380D)): binds
